B1: Coronin-1A (Mus musculus), O89053 (parent)
chain: MSRQVVRSSKFRHVFGQPAKADQCYEDVRVSQTTWDSGFCAVNPKFMALICEASGGGAFLVLPLGKTGRVDKNVPLVCGHTAPVLDIAWCPHNDNVIASGSEDCTVMVWEIPDGGLVLPLREPVITLEGHTKRVGIVAWHPTAQNVLLSAGCDNVILVWDVGTGAAVLTLGPDVHPDTIYSVDWSRDGALICTSCRDKRVRVIEPRKGTVVAEKDRPHEGTRPVHAVFVSEGKILTTGFSRMSERQVALWDTKHLEEPLSLQELDTSSGVLLPFFDPDTNIVYLCGKGDSSIRYFEITSEAPFLHYLSMFSSKESQRGMGYMPKRGLEVNKCEIARFYKLHERKCEPIAMTVPRKSDLFQEDLYPPTAGPDPALTAEEWLGGRDAGPLLISLKDGYVPPKSRELRVNRGLDSARRRATPEPSGTPSSDTVSRLEEDVRNLNAIVQKLQERLDRLEETVQAK

Variants of: B1
Conditions: with gnas2_human GNAS

| effect of a mutation on the interaction | Variant |
| --- | --- |
| disrupting interaction | T418E;T424E |

Variants of: B1
Conditions: with gnas2_human GNAS
Remark: another data set of the same source

| effect of a mutation on the interaction | Variant |
| --- | --- |
| disrupting interaction | T418A;T424A |
| decreasing interaction | T424A |
| decreasing interaction | T418A |
